Test results from PMC9646525, “Cryo-EM structure of the SEA complex” (Nature, 2022).

B2: Sea3 (natural protein, UniProt Q03897 1-1148, looked up)
chain: MCSSINEGPYNSPTFGKSLSLKVDGGFNAVSINPSGRDIVLASRQGLYIIDLDDPFTPPRWLHHITPWQVADVQWSPHPAKPYWIVSTSNQKAIIWNLAKSSSNAIEFVLHGHSRAITDINFNPQHPDVLATCSVDTYVHAWDMRSPHRPFYSTSSWRSAASQVKWNYKDPNVLASSHGNDIFVWDLRKGSTPLCSLKGHVSSVNSIDFNRFKYSEIMSSSNDGTVKFWDYSKSTTESKRTVTTNFPIWRGRYLPFGEGYCIMPMVGGNNAVYLINLCDDDDSEQNKKTKLQPIYAFKGHSDRVIDFLWRSRHTCDGDYDDREFQLVTWSKDCDLKLWPISDSIYGKVNFDRGKRLEEKLPDYDYCSYNKEPENRENVQKNEFRRLRENFVTTSGLKKNKTNHITWLSGIRMNSATSQEDLFNETKIQNLGEEVSAIGHKFPKVVFEKISVSTRELCLTLNGPWSEENPDDYIFLRISINFPLNYPNKGDPPKFTIEENSNLTMSKRQEILSNLATIGQKYTDSNLYCLEPCIRFVLGEKVSLEDIEEGQEPLLNFDIADHIDFEELSSLDSSYSDSQNPENLSSQSDIESYKEALVFPDTSNQGLDFGRNLALDTTPVPNGCGSCWTATGELFCFFANEKKPEKKQNAIIKLSQKEAGVEKHPFKIEPQVLYDKEVDSSVITAADELKARPKRYVDTLGLGGGTNGDSRTYFDDETSSDDSFDSVADDWDDILRNDIIVRTKIPILRGNFKAFSSVHSESGKTVESTKKNKNLVISKNFSSLLSDRKELALEYLFMDATPEGFARNNALVAEKFDLDEISHCWQILSDMLIDQSDYDPYTTIWNNHPMGIKWFIKEAIVYFERQQNLQMLAMLCCVILSARRKKIPARYYGQELENMEGTIVFNDNESQNTSFWKGSDAFSTRSRSSTVTPNFYGNHLRGKNIHGGDNSSIRSDDHHARLRTHNTLNGSSKFTEPAQKQGSRAISSSPFHSRMPDIKVELLHDDIIEAYEQEDLLHLEVSDIPKFQTYIYQYSKLLFRWGLPLERVKILKVSTDFRSSYSSQGIPPNNNKKSPYNGVLTHWIENNEFGEEKFLARNCNYCDLRVTRSSFICGNCQHVLHSSCARIWWEIGDECPSGCGCNCPEMFDA
notes: Sea3, S. cerevisiae, endogenous subunit of the SEAC; Sea3^SIP (Sea3^Nter) lies in the wing, Sea3^SAP (Sea3^Cter) in the core; Native protein of the purified complex; two copies in the SEAC; source: endogenous, yeast cells expressing Sea4-TAP; in lysate and co-purified with Sea4-TAP (IgG Dynabeads, TEV elution)

What was measured:
Assay in all cases: cryo-EM structure; endogenous SEAC purified from yeast via Sea4-TAP (IgG Dynabeads, TEV elution in 20 mM HEPES-NaOH pH 7.4, 300 mM NaCl, 2 mM DTT), on graphene-oxide-coated grids
Conditions in all cases: both partners purified
Sea1 = biological target: T1, Sea1 (S. cerevisiae (endogenous in yeast …, UniProt P47170 1-1584))
T1 construct: Sea1 (Iml1), S. cerevisiae, endogenous subunit of the SEAC (SEACIT, wing); Native protein of the purified complex; two copies in the SEAC; also called Iml1; Sea1/Iml1; source: endogenous, yeast cells expressing Sea4-TAP; in lysate and co-purified with Sea4-TAP (IgG Dynabeads, TEV elution)
T1 sequence (P47170 whole entry): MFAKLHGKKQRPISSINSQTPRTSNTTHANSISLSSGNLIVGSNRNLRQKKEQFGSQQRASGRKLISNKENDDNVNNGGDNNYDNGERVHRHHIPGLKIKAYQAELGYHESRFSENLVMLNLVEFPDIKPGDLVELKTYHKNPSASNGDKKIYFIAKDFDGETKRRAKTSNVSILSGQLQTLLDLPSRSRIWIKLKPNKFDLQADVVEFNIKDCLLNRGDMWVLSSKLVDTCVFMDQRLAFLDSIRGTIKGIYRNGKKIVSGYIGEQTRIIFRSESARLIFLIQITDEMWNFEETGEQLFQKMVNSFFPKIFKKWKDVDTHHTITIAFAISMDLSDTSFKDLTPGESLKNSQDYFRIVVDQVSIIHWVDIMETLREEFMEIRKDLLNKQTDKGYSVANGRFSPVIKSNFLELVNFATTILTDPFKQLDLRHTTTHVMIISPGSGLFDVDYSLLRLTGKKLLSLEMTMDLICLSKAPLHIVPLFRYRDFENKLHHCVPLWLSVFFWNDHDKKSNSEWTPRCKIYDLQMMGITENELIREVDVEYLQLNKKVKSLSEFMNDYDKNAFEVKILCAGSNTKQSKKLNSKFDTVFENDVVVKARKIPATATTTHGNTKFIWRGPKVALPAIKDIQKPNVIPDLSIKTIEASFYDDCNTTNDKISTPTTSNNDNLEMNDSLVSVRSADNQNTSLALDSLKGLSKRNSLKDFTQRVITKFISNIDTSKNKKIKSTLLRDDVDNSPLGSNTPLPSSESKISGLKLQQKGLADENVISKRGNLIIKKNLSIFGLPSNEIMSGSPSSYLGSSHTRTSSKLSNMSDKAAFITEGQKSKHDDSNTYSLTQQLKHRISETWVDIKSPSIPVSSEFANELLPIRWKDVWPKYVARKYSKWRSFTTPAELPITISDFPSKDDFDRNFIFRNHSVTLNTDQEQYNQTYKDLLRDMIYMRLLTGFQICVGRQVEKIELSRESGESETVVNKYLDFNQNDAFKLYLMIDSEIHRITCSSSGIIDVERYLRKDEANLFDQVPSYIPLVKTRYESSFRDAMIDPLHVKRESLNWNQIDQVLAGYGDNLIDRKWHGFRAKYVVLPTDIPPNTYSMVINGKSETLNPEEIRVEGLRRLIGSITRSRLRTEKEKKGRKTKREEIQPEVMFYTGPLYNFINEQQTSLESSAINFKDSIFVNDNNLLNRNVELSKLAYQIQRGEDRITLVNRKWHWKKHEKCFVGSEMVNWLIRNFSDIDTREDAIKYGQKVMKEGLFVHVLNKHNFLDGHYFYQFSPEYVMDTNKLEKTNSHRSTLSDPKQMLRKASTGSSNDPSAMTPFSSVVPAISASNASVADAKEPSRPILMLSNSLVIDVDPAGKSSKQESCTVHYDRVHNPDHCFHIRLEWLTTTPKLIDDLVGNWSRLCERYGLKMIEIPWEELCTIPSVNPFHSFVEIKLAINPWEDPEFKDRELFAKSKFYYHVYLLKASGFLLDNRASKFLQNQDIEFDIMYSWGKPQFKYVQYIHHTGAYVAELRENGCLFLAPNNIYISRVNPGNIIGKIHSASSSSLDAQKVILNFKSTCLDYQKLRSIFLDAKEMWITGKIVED

Sea3 = biological target: B2
Sea2 = biological target: T2, Sea2 (S. cerevisiae (endogenous in yeast …, UniProt Q08281 1-1341))
T2 construct: Sea2, S. cerevisiae, endogenous subunit of the SEAC (SEACAT, core); Native protein of the purified complex; two copies in the SEAC; source: endogenous, yeast cells expressing Sea4-TAP; in lysate and co-purified with Sea4-TAP (IgG Dynabeads, TEV elution)
T2 sequence (looked up): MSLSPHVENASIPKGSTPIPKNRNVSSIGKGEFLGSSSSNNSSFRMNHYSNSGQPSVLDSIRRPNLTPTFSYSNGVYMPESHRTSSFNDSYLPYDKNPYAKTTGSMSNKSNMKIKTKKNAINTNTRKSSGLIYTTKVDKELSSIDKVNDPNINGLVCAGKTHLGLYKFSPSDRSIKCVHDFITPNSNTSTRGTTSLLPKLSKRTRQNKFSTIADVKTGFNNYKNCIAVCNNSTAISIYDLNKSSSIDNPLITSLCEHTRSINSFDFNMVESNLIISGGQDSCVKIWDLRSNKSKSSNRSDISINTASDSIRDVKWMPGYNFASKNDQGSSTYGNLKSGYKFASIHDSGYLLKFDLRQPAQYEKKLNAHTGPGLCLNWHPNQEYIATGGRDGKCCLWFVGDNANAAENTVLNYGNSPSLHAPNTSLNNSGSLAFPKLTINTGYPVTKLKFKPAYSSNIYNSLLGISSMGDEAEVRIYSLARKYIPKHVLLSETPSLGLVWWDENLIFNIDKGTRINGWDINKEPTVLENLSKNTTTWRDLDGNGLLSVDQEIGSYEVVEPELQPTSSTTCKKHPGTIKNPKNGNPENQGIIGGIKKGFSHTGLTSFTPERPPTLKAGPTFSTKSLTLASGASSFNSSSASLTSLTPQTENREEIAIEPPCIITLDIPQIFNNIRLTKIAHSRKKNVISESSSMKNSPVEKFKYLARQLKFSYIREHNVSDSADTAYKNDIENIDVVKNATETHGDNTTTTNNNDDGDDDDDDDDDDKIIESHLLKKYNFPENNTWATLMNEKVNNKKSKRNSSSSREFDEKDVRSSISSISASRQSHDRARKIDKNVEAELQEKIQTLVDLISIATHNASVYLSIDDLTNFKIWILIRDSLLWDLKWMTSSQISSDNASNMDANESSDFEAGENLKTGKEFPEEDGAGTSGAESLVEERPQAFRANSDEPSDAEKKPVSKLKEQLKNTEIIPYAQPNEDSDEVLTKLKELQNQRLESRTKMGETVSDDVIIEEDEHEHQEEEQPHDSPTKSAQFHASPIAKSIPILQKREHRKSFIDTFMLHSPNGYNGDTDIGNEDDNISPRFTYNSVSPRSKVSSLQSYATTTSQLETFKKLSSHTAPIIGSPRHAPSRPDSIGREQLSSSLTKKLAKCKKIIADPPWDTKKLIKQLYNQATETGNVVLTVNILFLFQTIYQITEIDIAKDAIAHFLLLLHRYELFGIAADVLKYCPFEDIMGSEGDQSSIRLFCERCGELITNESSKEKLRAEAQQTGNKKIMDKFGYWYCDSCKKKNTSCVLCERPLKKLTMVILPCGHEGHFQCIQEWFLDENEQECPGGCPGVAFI

B1: Npr2 (natural protein, UniProt P39923 1-615, looked up)
chain: MLSYFQGFVPIHTIFYSVFHPTEGSKIKYEFPPNNLKNHGINFNTFKNYIIPKPILCHKLITFKYGTYRIVCYPVTINSPIYARNFFSFNFVFVFPYDCETSPYEPAITRLGKMFKVLEEQNQLLSKSERDPVFFDLKVLENSTTTPSTAGPSSTPNPSSNTTPTHPTSEKDTKDMRSSRYSDLIKDLGLPQSAFSIQDLLMRIFQDLNNYSECLIPIDEGNAVDIKIFPLLRPPTTCVSLEDVPLSSVNLKKIIDVNWDPTMMSIVPYIDGLNSIAKISKLSNSDPGLVIECIRHLIYYKCVTLSDIFQFSNIYAPSSLIRNFLTDPLMASDCQSYVTFPEVSKISNLPLNKSLGSGDQDSPSFSVRRKSKSSSIPSNPDSRTTSFSSTSRVSQNSSLNSSFSSIYKDWRQSQTSCSSSNIHVINNRNRFLPTRSCLFDLYRSLSQGQTLKTWYESKYMILKENNIDIRRFITFGLEKRIIYRCYSFPVMINAGSREPKEMTPIITKDLVNNDKLLEKRNHNHLLSATGSRNTAQSGNLKPERPSKVSFEMQRVSSLATGKSTMPKLSDEEEGILEESIRNAETFDKICVLLSKPKLEVESYLNELGEFKVINS
notes: Npr2, S. cerevisiae, endogenous subunit of the SEAC (SEACIT, wing); Native protein of the purified complex; two copies in the SEAC; source: endogenous, yeast cells expressing Sea4-TAP or Sea1-TAP; in lysate and co-purified with the tagged subunit (IgG Dynabeads, TEV elution)
binding result (Sea1): binds
binding result (Sea3): binds

B2
binding result (Sea1): binds
binding result (Sea2): binds

B3: Sec13 (natural protein, UniProt Q04491 1-297, looked up)
chain: MVVIANAHNELIHDAVLDYYGKRLATCSSDKTIKIFEVEGETHKLIDTLTGHEGPVWRVDWAHPKFGTILASCSYDGKVLIWKEENGRWSQIAVHAVHSASVNSVQWAPHEYGPLLLVASSDGKVSVVEFKENGTTSPIIIDAHAIGVNSASWAPATIEEDGEHNGTKESRKFVTGGADNLVKIWKYNSDAQTYVLESTLEGHSDWVRDVAWSPTVLLRSYLASVSQDRTCIIWTQDNEQGPWKKTLLKEEKFPDVLWRASWSLSGNVLALSGGDNKVTLWKENLEGKWEPAGEVHQ
notes: Sec13, S. cerevisiae, endogenous subunit of the SEAC (SEACAT, core); Native protein of the purified complex; two copies in the SEAC; source: endogenous, yeast cells expressing Sea4-TAP; in lysate and co-purified with Sea4-TAP (IgG Dynabeads, TEV elution)
binding result (Sea3): binds
